Read-outs that look alike come from different tables or passages of the source.
Columns and labels:
[1] = reported; cited from earlier work
rHuPH20 [2] = target: T1, rHuPH20 (Homo sapiens, UniProt P38567); test: Determination of hyaluronidase activity of rHuPH20, turbidimetric assay (Example 2, variant not specified); format: biochemical; settings: for Effect on rHuPH20 enzymatic activity: stabilizer screening in rHuPH20/insulin formulation, semi-quantitative in comparison with NaCl, samples incubated at 30° C. for about one week
T1 construct: made in house; host or cells: CHO cells (DG44 CHO, HZ24 plasmid, clone 2B2)
T1 sequence (P38567 36-482): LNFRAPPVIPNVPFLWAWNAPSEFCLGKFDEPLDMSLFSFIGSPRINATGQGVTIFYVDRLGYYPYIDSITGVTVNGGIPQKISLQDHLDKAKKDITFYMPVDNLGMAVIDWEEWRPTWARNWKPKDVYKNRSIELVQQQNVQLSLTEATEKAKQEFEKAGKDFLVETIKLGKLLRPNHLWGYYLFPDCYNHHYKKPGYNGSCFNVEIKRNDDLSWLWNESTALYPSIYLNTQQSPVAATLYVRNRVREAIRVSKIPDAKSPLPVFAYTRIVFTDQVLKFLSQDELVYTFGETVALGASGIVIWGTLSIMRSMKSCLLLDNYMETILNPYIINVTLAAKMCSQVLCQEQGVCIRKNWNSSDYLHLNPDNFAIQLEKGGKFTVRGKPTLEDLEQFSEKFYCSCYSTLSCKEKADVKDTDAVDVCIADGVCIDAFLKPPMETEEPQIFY

[3] = RP-HPLC: insulin apparent solubility / percent recovery
Procedure: Apparent solubility was measured as the percent insulin recovery as compared to the initial formulations/conditions.
Samples were prepared by withdrawing 100 μL from each vial at every time point and centrifuging prior to loading. Samples were stored in an autosampler at 4° C. prior to use, and were considered stable for 3 days after preparation. All samples were tested in duplicate.
For insulin, 20 μL was injected for each HPLC run.
To determine the apparent solubility, the peak area of insulin/insulin analog main peak and desamido peak were integrated and combined together to calculate the percentage relative to the standards. […] The data were processed using Design-Expert® 7.0 (StatEase) and the “historical data” feature. Insulin percent purity was expressed as the percent of main insulin versus all insulin species.

[4] = Lysyl lysine as buffer: titration curve and effect of temperature on pH; format: physicochemical; settings: rHuPH20/insulin glulisine formulations, 30-105 mM lysyl lysine
rHuPH20 [5] = target: T1, rHuPH20; test: RP-HPLC: rHuPH20 oxidation peaks (ox-1, ox-2); format: physicochemical; settings: 40 mM methionine, rHuPH20/insulin formulation, 30° C., 5 weeks
Description: The stability of hyaluronan degrading enzymes in a composition, such as in the co-formulations provided herein, also can be assessed using other methods and assays known in the art. […] Percent recovery is the relative percentage of the hyaluronidase in the co-formulation over time and at various storage conditions, as compared to a reference sample. […] An increase in particle size and a decrease in the melting temperature indicates denaturation and subsequent aggregation of the hyaluronidase. […] Other methods known to one of skill in the art that can be used to determine the stability of the hyaluronidase in the co-formulations provided herein, include polyacrylamide gel electrophoresis (PAGE), immunoblotting, nuclear magnetic resonance (NMR) spectroscopy, mass spectrometry, circular dichroism (CD) and dye-based fluorescence assays.
The formulations varied in the surfactant and surfactant concentration and the buffer (either histidine or phosphate).
Methionine oxidation can be prevented by addition of free methionine as a scavenger to react with potential oxidative compounds.

[6] = tested on: Aspergillus niger, Pseudomonas aeruginosa, E. coli, Staphylococcus aureus and Candida albicans; test: Antimicrobial (preservative) effectiveness test, USP / EPA / EPB criteria; format: cell-based
Description: One of skill in the art is familiar with the antimicrobial preservative effectiveness test and standards to be meet under the USP and EPA or EPB in order to meet minimum requirements. […] The preservative properties of the composition are deemed adequate if, under the conditions of the test, there is a significant fall or no increase, as specified in Table 6, below, in the number of microorganisms in the inoculated composition after the times and at the temperatures prescribed. The criteria for evaluation are given in terms of the log reduction in the number of viable microorganism as compared to the initial sample or the previous timepoint.
The number of viable microorganisms (cfu) in each sample is determined by plate count or membrane filtration. Finally, the cfu for each sample is compared to either the inoculum or the previous sample and log reduction is determined.
The tests were performed according to the guidance of EP and USP by a contract analytical laboratory (Quadrants Scientific, Inc., San Diego, Calif.). […] Raw data (CFU/mL) was converted to a log 10 unit reduction from the measured inoculum. […]
The tests were performed according to the guidance of EP and USP by a contract analytical laboratory (Quadrants Scientific, Inc., San Diego, Calif. and Lancaster Laboratories, Lancaster, Pa.). […] Raw data (CFU/mL) was converted to a log 10 unit reduction from the measured inoculum. […]

rHuPH20 [7] = target: T1, rHuPH20; test: Differential scanning calorimetry: Tm of rHuPH20; format: physicochemical; settings: in the presence of […] m-cresol
[8] = stabilizer screening in rHuPH20/insulin formulation, semi-quantitative in comparison with NaCl, RP-HPLC, samples stored at 5° C.

NC(CO)(CO)CO [Tris]
temperature effect (dpH/dT) [1]: −0.028 U/° C. | Effect on rHuPH20 enzymatic activity (rHuPH20 [2]): No effect | Effect on insulin solubility [3]: No effect

Cl.Cl.NCCCCC(N)C(=O)NC(CCCCN)C(=O)O (stereo not shown) [Lys-Lys, Lys-Lys dihydrochloride]
Effect on rHuPH20 enzymatic activity (rHuPH20 [2]): Strong stabilizer | effect on rHuPH20 stability in comparison with NaCl (rHuPH20 [2]; stabilizer screening, 30° C. about one week, […] m-cresol, 0.2% phenol): stabilized rHuPH20 more than NaCl | Effect on insulin solubility [3, 8]: Reduced solubility | Effect on insulin solubility ([3]; stabilizer screening, samples stored at 5° C.): caused severe precipitation of insulin | temperature effect (dpH/dT) [4]: −0.033 U/° C.

CSCC[C@H](N)C(=O)O [methionine]
rHuPH20 enzymatic activity (rHuPH20 [2]; 1 mM methionine, 30° C. for one month, starting 650 U/mL): 525 U/mL | rHuPH20 enzymatic activity (rHuPH20 [2]; 20 mM methionine, 30° C. for one month, starting 650 U/mL): 522 U/mL | Effect on rHuPH20 enzymatic activity (rHuPH20 [2]): No effect | ox-1 peak of rHuPH20 compared to formulations without methionine (rHuPH20 [5]): significantly smaller | Effect on antimicrobial effectiveness ([6]; component concentration (50-100 mM), formulations with 100 U/mL insulin or analog and 5 μg/mL rHuPH20): Neutral | Effect on insulin solubility [3, 8]: No effect

[Cl-].[Na+] [NaCl]
Effect on antimicrobial effectiveness ([6]; component concentration (80-100 mM)): Neutral

B1: rHuPH20: secreted soluble recombinant human PH20 expressed in CHO cells; nucleic acid encodes amino acids 36-482 of SEQ ID NO:1 (protein, listed as Homo sapiens)
chain: T1 sequence (P38567 36-482)
modifications: precursor human PH20
rHuPH20 enzymatic activity (rHuPH20 [2]; 2-8° C., 5 Months, pH 7.0, NaCl 50 mM): 494.4796 | rHuPH20 enzymatic activity (rHuPH20 [2]; 2-8° C., 5 Months, pH 7.0, NaCl 80 mM): 575.3274 | rHuPH20 enzymatic activity (rHuPH20 [2]; 2-8° C., 5 Months, pH 7.0, NaCl 110 mM): 615.3546 | rHuPH20 enzymatic activity (rHuPH20 [2]; 2-8° C., 5 Months, pH 7.0, NaCl 140 mM): 582.4274 | rHuPH20 enzymatic activity (rHuPH20 [2]; 2-8° C., 5 Months, pH 7.2, NaCl 50 mM): 481.6035 | rHuPH20 enzymatic activity (rHuPH20 [2]; 2-8° C., 5 Months, pH 7.2, NaCl 80 mM): 566.2521 | rHuPH20 enzymatic activity (rHuPH20 [2]; 2-8° C., 5 Months, pH 7.2, NaCl 110 mM): 593.2027 | rHuPH20 enzymatic activity (rHuPH20 [2]; 2-8° C., 5 Months, pH 7.2, NaCl 140 mM): 585.9948 | rHuPH20 enzymatic activity (rHuPH20 [2]; 2-8° C., 5 Months, pH 7.4, NaCl 50 mM): 526.6628 | rHuPH20 enzymatic activity (rHuPH20 [2]; 2-8° C., 5 Months, pH 7.4, NaCl 80 mM): 564.7769 | rHuPH20 enzymatic activity (rHuPH20 [2]; 2-8° C., 5 Months, pH 7.4, NaCl 110 mM): 618.3856 | rHuPH20 enzymatic activity (rHuPH20 [2]; 2-8° C., 5 Months, pH 7.4, NaCl 140 mM): 585.9813 | rHuPH20 enzymatic activity (rHuPH20 [2]; 2-8° C., 5 Months, pH 7.6, NaCl 50 mM): 508.0571 | rHuPH20 enzymatic activity (rHuPH20 [2]; 2-8° C., 5 Months, pH 7.6, NaCl 80 mM): 546.4209 | rHuPH20 enzymatic activity (rHuPH20 [2]; 2-8° C., 5 Months, pH 7.6, NaCl 110 mM): 581.6326 | rHuPH20 enzymatic activity (rHuPH20 [2]; 2-8° C., 5 Months, pH 7.6, NaCl 140 mM): 594.6197 | rHuPH20 enzymatic activity (rHuPH20 [2]; 2-8° C., 9 Months, pH 7.0, NaCl 50 mM): 436.5115 | rHuPH20 enzymatic activity (rHuPH20 [2]; 2-8° C., 9 Months, pH 7.0, NaCl 80 mM): 513.9692 | rHuPH20 enzymatic activity (rHuPH20 [2]; 2-8° C., 9 Months, pH 7.0, NaCl 110 mM): 551.0218 | rHuPH20 enzymatic activity (rHuPH20 [2]; 2-8° C., 9 Months, pH 7.0, NaCl 140 mM): 554.6513 | rHuPH20 enzymatic activity (rHuPH20 [2]; 2-8° C., 9 Months, pH 7.2, NaCl 50 mM): 451.8324 | rHuPH20 enzymatic activity (rHuPH20 [2]; 2-8° C., 9 Months, pH 7.2, NaCl 80 mM): 518.0740 | rHuPH20 enzymatic activity (rHuPH20 [2]; 2-8° C., 9 Months, pH 7.2, NaCl 110 mM): 553.1847 | rHuPH20 enzymatic activity (rHuPH20 [2]; 2-8° C., 9 Months, pH 7.2, NaCl 140 mM): 536.7846 | rHuPH20 enzymatic activity (rHuPH20 [2]; 2-8° C., 9 Months, pH 7.4, NaCl 50 mM): 466.1871 | rHuPH20 enzymatic activity (rHuPH20 [2]; 2-8° C., 9 Months, pH 7.4, NaCl 80 mM): 509.9032 | rHuPH20 enzymatic activity (rHuPH20 [2]; 2-8° C., 9 Months, pH 7.4, NaCl 110 mM): 560.4847 | rHuPH20 enzymatic activity (rHuPH20 [2]; 2-8° C., 9 Months, pH 7.4, NaCl 140 mM): 542.4534 | rHuPH20 enzymatic activity (rHuPH20 [2]; 2-8° C., 9 Months, pH 7.6, NaCl 50 mM): 464.8964 | rHuPH20 enzymatic activity (rHuPH20 [2]; 2-8° C., 9 Months, pH 7.6, NaCl 80 mM): 515.3382 | rHuPH20 enzymatic activity (rHuPH20 [2]; 2-8° C., 9 Months, pH 7.6, NaCl 110 mM): 531.9202 | rHuPH20 enzymatic activity (rHuPH20 [2]; 2-8° C., 9 Months, pH 7.6, NaCl 140 mM): 523.5385 | time rHuPH20 stable (rHuPH20 [2]; 5° C., […] m-cresol, […] phenol, pH 7.0-7.6, 50-140 mM NaCl): 12 months | reduction of Tm of rHuPH20 by DSC (rHuPH20 [7]): about 2 °C
